Laboratory results reported in article PMC2582960, “A Structural Model of the Staphylococcus aureus ClfA–Fibrinogen Interaction Opens New Avenues for the Design of Anti-Staphylococcal Therapeutics” (PLoS Pathogens, 2008).
Like-named read-outs stand apart in the source and are kept apart here. Where no end group is shown, it is not given here.

Experiments:
[1] = target: GST-Fg γ^1–17 (residues 395–411 of the Fg γ-chain fused to a GST protein) (human) (UniProt P02679); test: ELISA; human Fg or GST fusion protein coated (1 µg/well); His-tagged ClfA added in increasing concentrations in HBS (10 mM HEPES, 100 mM NaCl, 3 mM EDTA, pH 7.4), 25°C, 1 h; bound ClfA detected with anti-His antibodies; apparent Kd
[2] = target: human fibrinogen (Fg), full length (human) (UniProt P02671); test: as above
human fibrinogen (Fg), full length (human), sequence (P02671 other isoform, or with tags, fused parts or gaps, chain 1 of 3): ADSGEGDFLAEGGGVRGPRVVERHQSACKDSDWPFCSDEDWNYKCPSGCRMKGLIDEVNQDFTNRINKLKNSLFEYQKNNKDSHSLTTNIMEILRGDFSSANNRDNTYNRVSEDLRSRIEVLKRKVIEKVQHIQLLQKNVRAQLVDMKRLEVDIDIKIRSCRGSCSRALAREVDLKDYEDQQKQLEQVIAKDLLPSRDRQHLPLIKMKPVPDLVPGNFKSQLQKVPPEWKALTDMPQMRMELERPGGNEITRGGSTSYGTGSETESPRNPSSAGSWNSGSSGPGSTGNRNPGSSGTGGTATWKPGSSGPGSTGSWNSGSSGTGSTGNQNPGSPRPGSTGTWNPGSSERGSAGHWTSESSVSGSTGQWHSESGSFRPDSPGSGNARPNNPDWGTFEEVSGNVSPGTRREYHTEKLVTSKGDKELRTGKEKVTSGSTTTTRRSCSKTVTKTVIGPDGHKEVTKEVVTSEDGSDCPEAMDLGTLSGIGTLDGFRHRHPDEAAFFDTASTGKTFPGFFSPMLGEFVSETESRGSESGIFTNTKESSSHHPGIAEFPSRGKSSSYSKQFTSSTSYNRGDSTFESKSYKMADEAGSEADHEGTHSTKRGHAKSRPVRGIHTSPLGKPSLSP
human fibrinogen (Fg), full length (human), sequence (P02675 31-491, chain 2 of 3, further chain): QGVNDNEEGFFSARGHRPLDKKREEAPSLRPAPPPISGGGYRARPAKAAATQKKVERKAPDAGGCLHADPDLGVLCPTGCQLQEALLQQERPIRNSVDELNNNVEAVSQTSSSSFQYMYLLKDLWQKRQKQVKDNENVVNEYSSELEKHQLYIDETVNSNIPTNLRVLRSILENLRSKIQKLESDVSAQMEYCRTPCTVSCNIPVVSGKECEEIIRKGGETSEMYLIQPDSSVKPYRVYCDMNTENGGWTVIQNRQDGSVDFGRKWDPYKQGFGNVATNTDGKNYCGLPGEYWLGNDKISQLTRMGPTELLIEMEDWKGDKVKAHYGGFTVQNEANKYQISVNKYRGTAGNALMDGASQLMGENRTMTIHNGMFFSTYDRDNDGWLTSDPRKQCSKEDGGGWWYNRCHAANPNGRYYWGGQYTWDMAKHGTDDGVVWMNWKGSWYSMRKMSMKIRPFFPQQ
human fibrinogen (Fg), full length (human), sequence (P02679 other isoform, or with tags, fused parts or gaps, chain 3 of 3, further chain): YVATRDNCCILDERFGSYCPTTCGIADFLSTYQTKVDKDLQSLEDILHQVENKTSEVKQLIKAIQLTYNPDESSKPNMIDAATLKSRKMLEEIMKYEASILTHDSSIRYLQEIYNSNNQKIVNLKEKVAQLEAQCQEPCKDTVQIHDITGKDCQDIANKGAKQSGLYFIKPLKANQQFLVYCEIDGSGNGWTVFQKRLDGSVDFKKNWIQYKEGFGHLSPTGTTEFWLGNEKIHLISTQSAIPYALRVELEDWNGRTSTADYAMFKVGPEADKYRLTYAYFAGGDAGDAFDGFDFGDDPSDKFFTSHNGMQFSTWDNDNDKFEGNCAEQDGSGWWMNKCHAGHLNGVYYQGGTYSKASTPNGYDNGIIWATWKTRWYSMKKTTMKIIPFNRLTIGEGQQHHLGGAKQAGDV

ClfA229–545 [3] = target: T1, ClfA229–545 (Staphylococcus aureus, UniProt Q53653); conditions: read-out: Kd of ClfA229–545 binding to immobilized GST fusion protein; solid-phase assay, 1 µg GST fusion per well, increasing rClfA229–545, anti-His detection (Fig. 1C)
T1 sequence (Q53653 229-545): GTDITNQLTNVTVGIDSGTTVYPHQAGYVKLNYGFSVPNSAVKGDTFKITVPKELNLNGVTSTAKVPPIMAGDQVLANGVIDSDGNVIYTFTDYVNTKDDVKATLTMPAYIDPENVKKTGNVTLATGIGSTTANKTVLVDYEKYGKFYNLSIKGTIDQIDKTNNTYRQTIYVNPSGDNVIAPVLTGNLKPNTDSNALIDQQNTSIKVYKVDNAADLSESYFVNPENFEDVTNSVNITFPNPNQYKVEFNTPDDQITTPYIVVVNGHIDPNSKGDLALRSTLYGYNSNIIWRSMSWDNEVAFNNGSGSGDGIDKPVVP
Method: (§1) ClfA229–545 (100 nM) was pre-incubated with wild-type Fg γ^1–17 peptide (WT γ^1–17) or the P1 (G1A) to P17 (V17A) mutant peptide (50 µM) for 1 hr.
Immulon 4HBX Microtiter plates (Thermo) were coated with human Fg (1 µg/well) in HBS (10 mM HEPES, 100 mM NaCl, 3 mM EDTA, pH 7.4) over-night at 4°C. The wells were washed with HBS containing 0.05% (w/v) Tween-20 (HBST) and blocked with 5% (w/v) BSA in HBS for 1 h at 25°C. […] After incubation, the plates were washed 3 times with HBST. Anti-His antibodies (GE Healthcare) were added (1∶3000 in HBS) and the plates were incubated at 25°C for 1 h. The wells were subsequently washed 3 times with HBST and incubated with goat anti-mouse-AP secondary antibodies (diluted 1∶3000 in HBS; Bio-Rad) at 25°C for 1 h. The wells were washed 3 times with HBST and AP-conjugated polyclonal antibodies were detected by addition of p-nitrophenyl phosphate (Sigma) in 1 M diethanolamine (0.5 mM MgCl2, pH 9.8) and incubated at 25°C for 30–60 min. The plates were read at 405 nm in a ELISA plate reader (Thermomax, Molecular Devices). For the inhibition assays, recombinant ClfA229–545 was pre-incubated with Fg γ peptides in HBS for 1 h at 37°C.

ClfA229–545 [4] = target: T1, ClfA229–545; test: Isothermal titration calorimetry of ClfA229–545 with soluble Fg peptides; design: a smaller ClfA construct (229–545) predicted to be composed only of the N2 N3 domains; His tag (pQE-30 vector) (N); made in house; host or cells: Escherichia coli XL-1 Blue; conditions: ITC, 30 µM ClfA in cell, 500–600 µM peptide in syringe, HBS pH 7.4, 30°C, single binding site model; read-out: Kd of peptide binding to ClfA229–545 in solution (ITC)
Method: The interaction between ClfA proteins and soluble Fg peptides was analyzed by Isothermal titration calorimetry (ITC) using a VP-ITC microcalorimeter (MicroCal). The cell contained 30 µM ClfA and the syringe contained 500–600 µM peptide in HBS buffer (10 mM HEPES, 150 mM NaCl, pH 7.4). All samples were degassed for 5 min. The titration was performed at 30°C using a preliminary injection of 5 µl followed by 30 injections of 10 µl with an injection speed of 0.5 µl/sec. The stirring speed was 300 rpm. Data were fitted to a single binding site model and analyzed using Origin version 5 (MicroCal) software.

[5] = target: GST-Fg γ^1–17 (residues 395–411 of the Fg γ-chain fused to a GST protein) (human) (UniProt P02679); test: ELISA; human Fg or GST fusion protein coated (1 µg/well); His-tagged ClfA added in increasing concentrations in HBS (10 mM HEPES, 100 mM NaCl, 3 mM EDTA, pH 7.4), 25°C, 1 h; bound ClfA detected with anti-His antibodies; apparent Kd; remark: listed apart in the source
[6] = target: ClfA_(229–545) (clumping factor A, N2N3 domains) (Staphylococcus aureus strain Newman) (UniProt Q53653); test: ITC
ClfA229–545 [7] = target: T1, ClfA229–545; test: Solid-phase inhibition assay: Fg γ peptides inhibit ClfA binding to immobilized GST-Fg γ^1–17; design: a smaller ClfA construct (229–545) predicted to be composed only of the N2 N3 domains; His tag (pQE-30 vector) (N); made in house; host or cells: Escherichia coli XL-1 Blue; conditions: read-out: inhibition of ClfA binding to immobilized GST-Fg γ^1–17
Method: To identify specific residues in Fg that are important for binding to ClfA229–545, a panel of peptides (Fig. 1A) based on the Fg γ-chain sequence 395–411 (referred to as γ^1–17) were synthesized in which each position was sequentially substituted with an alanine residue (alanines 11 and 14 were changed to serines). These peptides were tested as inhibitors in solid-phase binding assays, using a peptide concentration giving about 50% inhibition by the wild-type peptide.
as §1
Immulon 4HBX Microtiter plates (Thermo) were coated with human Fg (1 µg/well) in HBS (10 mM HEPES, 100 mM NaCl, 3 mM EDTA, pH 7.4) over-night at 4°C. The wells were washed with HBS containing 0.05% (w/v) Tween-20 (HBST) and blocked with 5% (w/v) BSA in HBS for 1 h at 25°C. […] After incubation, the plates were washed 3 times with HBST. Anti-His antibodies (GE Healthcare) were added (1∶3000 in HBS) and the plates were incubated at 25°C for 1 h. […] The wells were washed 3 times with HBST and AP-conjugated polyclonal antibodies were detected by addition of p-nitrophenyl phosphate (Sigma) in 1 M diethanolamine (0.5 mM MgCl2, pH 9.8) and incubated at 25°C for 30–60 min. The plates were read at 405 nm in a ELISA plate reader (Thermomax, Molecular Devices). […]

[8] = target: T2, ClfA_(229–545) (clumping factor A, N2N3 domains) (Staphylococcus aureus strain Newman, UniProt Q53653 229-545); test: ITC
T2 chain: T1 sequence (Q53653 229-545)

Molecule: ClfA_((229–545)D327C/K541C), stable closed conformation (from UniProt Q53653 229-545) (domain or fragment)
- Kd [1]: 0.02 µM
- Kd [2]: 0.034 µM

Molecule: GST-Fg γ^1–17: recombinant form of residues 395–411 of the Fg γ-chain fused to a GST protein (GEGQQHHLGGAKQAGDV; also: fused to GST, end not given here)
- Kd (ClfA229–545 [3]): 0.657 µM

Molecule: GEGQQHHLGGAKQAGAV [γ^1–17 D16A]
- Kd (ClfA229–545 [4]): 3 µM

Molecule: ClfA_(229–545) (clumping factor A, N2N3 domains) (from UniProt Q53653 229-545) (domain or fragment)
- Kd [1]: 0.222 µM
- Kd [5]: 0.657 µM

Molecule: Fg γ^1–17 peptide, wild type (Fg γ-chain 395–411) (from UniProt P02679-2 421-437)
- Kd [6]: 5.8 µM

Molecule: GEGQQHHLGGAKQAGDV [WT γ^1–17]
- inhibition at 50 µM (ClfA229–545 [7]): ~50%
- Kd (ClfA229–545 [4]): 5.8 µM

Molecule: QHHLGGAKQAGAV [Fg γ^5–17 _(D16A) peptide (13 residues)]
- Kd [8]: 10.5 µM

Molecule: HLGGAKQAGAV [Fg γ^1–17 _(D16A) peptide truncated by 6 amino acids at the N-terminus]
- Kd [8]: 22.5 µM

Molecule: GQQHHLGGAKQAGAV [Fg γ^1–17 _(D16A) peptide truncated by 2 amino acids at the N-terminus]
- Kd [8]: 8.8 µM
